Source: PMC7193532 (Acta Crystallographica. Section D, Structural Biology, 2020)

Assays:
Assay in all cases: SPR
ecumicin (ECU) = conditions: read off a plot
ohmyungsamycin A (OMS-A) = conditions: read off a plot
rufomycin I (RUF-I) = conditions: read off a plot
[1] = target: ClpC1-NTD MAFER (Mycobacterium tuberculosis) (UniProt P9WPC9)
[2] = target: ClpC1-FL mutant K85A (Mycobacterium tuberculosis) (UniProt P9WPC9)
[3] = target: ClpC1-FL mutant L92S/L96P (Mycobacterium tuberculosis) (UniProt P9WPC9)
[4] = target: ClpC1-FL mutant Q17A (Mycobacterium tuberculosis) (UniProt P9WPC9)
[5] = target: ClpC1-FL mutant V14A (Mycobacterium tuberculosis) (UniProt P9WPC9)
[6] = target: ClpC1-NTD N-terminal mutant FER (residues 2-145) (Mycobacterium tuberculosis) (UniProt P9WPC9)
[7] = target: ClpC1-NTD N-terminal mutant MVFER (Mycobacterium tuberculosis) (UniProt P9WPC9)

Question: Which results are given for “ClpC1-NTD (SPR construct, His6-SUMO tag cleaved) (from UniProt P9WPC9) AAFER (Met1Ala mutation and Ala insertion)”?
Answer: Kd (ecumicin (ECU); parent: est. 51 nM): 3300 nM; Kd (ohmyungsamycin A (OMS-A); parent: est. 400 nM): 9200 nM; Kd (rufomycin I (RUF-I); parent: est. 68 nM): 1200 nM

Question: How did the Kd (ohmyungsamycin A (OMS-A); parent: est. 400 nM) turn out when “ClpC1-NTD (SPR construct, His6-SUMO tag cleaved) (from UniProt P9WPC9) M1del (FER)” was run?
Answer: Its Kd is 4900 nM.

Question: What about the Kd (rufomycin I (RUF-I); parent: est. 68 nM) of the same substance?
Answer: Its Kd is 360 nM.

Question: How did the Kd (ecumicin (ECU); parent: est. 51 nM) turn out when “ClpC1-NTD (SPR construct, His6-SUMO tag cleaved) (from UniProt P9WPC9) MAF (MAFER: Ala inserted before Phe2)” was run?
Answer: Its Kd is 3800 nM.

Question: And the Kd (ohmyungsamycin A (OMS-A); parent: est. 400 nM)?
Answer: Its Kd is 9600 nM.

Question: Which Kd (rufomycin I (RUF-I); parent: est. 68 nM) does the source give for “ClpC1-NTD (SPR construct, His6-SUMO tag cleaved) (from UniProt P9WPC9) MVAFER (ValAla inserted before Phe2)” here?
Answer: Its Kd is 900 nM.

Question: How did the Kd (ecumicin (ECU); parent: est. 51 nM) turn out when “ClpC1-NTD (SPR construct, His6-SUMO tag cleaved) (from UniProt P9WPC9) MVFER (Val inserted before Phe2)” was run?
Answer: The Kd was 4100 nM.

Question: With ecumicin (peptide) as the substance, how does the Kd [1] read?
Answer: The Kd was 3500 nM.

Question: For “full-length ClpC1 (ClpC1-FL) (from UniProt P9WPC9) K85A”, which Kd (ecumicin (ECU); parent: est. 68 nM) is on record?
Answer: The Kd was 580 nM.

Question: What about the Kd (ohmyungsamycin A (OMS-A); parent: est. 350 nM) of the same substance?
Answer: Its Kd is 1600 nM.

Question: What about the Kd (rufomycin I (RUF-I); parent: est. 87 nM) of the same substance?
Answer: Its Kd is 420 nM.

Question: Which Kd (rufomycin I (RUF-I); parent: est. 87 nM) does the source give for “full-length ClpC1 (ClpC1-FL) (from UniProt P9WPC9) L92S; L96P” here?
Answer: Its Kd is 260 nM.

Question: “full-length ClpC1 (ClpC1-FL) (from UniProt P9WPC9) Q17A” was tested. Which Kd (ohmyungsamycin A (OMS-A); parent: est. 350 nM) did it give?
Answer: Its Kd is 1300 nM.

Question: What about the Kd (rufomycin I (RUF-I); parent: est. 87 nM) of the same substance?
Answer: The Kd was 1400 nM.

Question: What does the source list for “full-length ClpC1 (ClpC1-FL) (from UniProt P9WPC9) V14A”?
Answer: Kd (ohmyungsamycin A (OMS-A); parent: est. 350 nM): 1600 nM; Kd (rufomycin I (RUF-I); parent: est. 87 nM): 630 nM

Question: Which fold reduction in binding affinity against wild type [2] does the source give for rufomycin I (RUF-I) (peptide) here?
Answer: Its fold reduction in binding affinity against wild type is 5 fold.

Question: And the fold reduction in binding affinity against wild type [3]?
Answer: Its fold reduction in binding affinity against wild type is 3 fold.

Question: What about the fold reduction in binding against wild type [4] of the same substance?
Answer: The fold reduction in binding against wild type was 17 fold.

Question: What about the fold reduction in binding affinity against wild type [5] of the same substance?
Answer: Its fold reduction in binding affinity against wild type is 8 fold.

Question: And the fold reduction in binding against wild type [6]?
Answer: The fold reduction in binding against wild type was 5 fold.

Question: What about the fold reduction in binding affinity against wild type [7] of the same substance?
Answer: The fold reduction in binding affinity against wild type was 6 fold.
